For experiment [1], the target named is TatB, wild type (E. coli) (UniProt P69425). The experiment in a line: cross-linking.
A further experiment addresses TatB(L54Bpa) (E. coli) (UniProt P69425). The experiment in a line: cross-linking.

“And” between values parts separate entries of the source, which are not always exact repeats. Identical values can stand only once.

One may read the stoichiometry N as a count of units in the complex or per binding partner.

In turn, “pSufI(L328Bpa) (from UniProt P26648 1-470) (natural protein)” yielded a percent of the vesicle-associated pSufI in the TatB adduct in experiment [1] of 15%. Take “TatB(L54Bpa) (from UniProt P69425 1-171) (natural protein)”: the stoichiometry N in the experiment with TatB(L54Bpa) (E. coli) was 2 and 3.

The values above are taken from PMC2993744.
